Results: paper PMC10442857, “Cellular Uptake of a Fluorescent Ligand Reveals Ghrelin O-Acyltransferase Interacts with Extracellular Peptides and Exhibits Unexpected Localization for a Secretory Pathway Enzyme” (ACS Chemical Biology, 2023)
Peptide text beside a SMILES is read from it.

B1: ligand 5, H-Inp-S-Dap-FLSPY-NH2 (peptide)
chain: XSXFLSPY
HELM: PEPTIDE1{[O=C(C1CCNCC1)[*:2]].S.[NC[C@H](N[*:1])C(=O)[*:2]].F.L.S.P.Y.[am]}$$$$V2.0
SMILES: CC(C)C[C@H](NC(=O)[C@H](Cc1ccccc1)NC(=O)[C@H](CN)NC(=O)[C@H](CO)NC(=O)C1CCNCC1)C(=O)N[C@@H](CO)C(=O)N1CCC[C@H]1C(=O)N[C@@H](Cc1ccc(O)cc1)C(N)=O
B2: ligand 12, H-GS-Dap-Nal-1-LSPT-NH2 (peptide)
chain: GSXXLSPT
HELM: PEPTIDE1{G.S.[NC[C@H](N[*:1])C(=O)[*:2]].[O=C([C@H](Cc1cccc2ccccc12)N[*:1])[*:2]].L.S.P.T.[am]}$$$$V2.0
SMILES: CC(C)C[C@H](NC(=O)[C@H](Cc1cccc2ccccc12)NC(=O)[C@H](CN)NC(=O)[C@H](CO)NC(=O)CN)C(=O)N[C@@H](CO)C(=O)N1CCC[C@H]1C(=O)N[C@H](C(N)=O)[C@@H](C)O
B3: ligand 4, H-Aib-S-Dap-FLSPY-NH2 (peptide)
chain: XSXFLSPY
HELM: PEPTIDE1{[Aib].S.[NC[C@H](N[*:1])C(=O)[*:2]].F.L.S.P.Y.[am]}$$$$V2.0
SMILES: CC(C)C[C@H](NC(=O)[C@H](Cc1ccccc1)NC(=O)[C@H](CN)NC(=O)[C@H](CO)NC(=O)C(C)(C)N)C(=O)N[C@@H](CO)C(=O)N1CCC[C@H]1C(=O)N[C@@H](Cc1ccc(O)cc1)C(N)=O

Experiments:
[1] = biological target: T1, GHSR (GHS-R1a) (Homo sapiens, UniProt Q92847); assay: biochemical; format: binding; settings: lower limit from test at 100 µM; read-out: IC50 against GHSR
T1 construct: expressed in transfected cells; host or cells: HEK 293 cells transfected with GHS-R1a (membrane suspension)
Protocol: Peptide binding affinity for the ghrelin receptor was determined using a competitive radioligand-displacement binding assay,[22] with details provided in the Supporting Information. […]
GHSR receptor binding assays. Peptide binding affinity for the ghrelin receptor was determined using a competitive radioligand-displacement binding assay.1 Assays were performed using GHS-R1a transfected HEK 293 cells as the receptor source and human His[125I]-ghrelin(1−28) (PerkinElmer Inc. NEX388010UC ) as the radioligand. Human ghrelin(1−28) was used as a reference to ensure the validity of the results. A suspension of membrane from HEK 293/GHS-R1a cells (100,000 cells per assay tube) were incubated with ghrelin(1−8) peptide analogues (at […]
ghrelin (15 pM per assay tube) in binding buffer (25 mM HEPES, 5 mM magnesium chloride, 1 mM calcium chloride, 2.5 mM EDTA, and 0.4% BSA, pH 7.4). The resulting suspension was incubated for 20 min under shaking (550 rpm) at 37 °C. Unbound [ 125I]-ghrelin was removed and the amount of [ 125I]-ghrelin bound to the membranes was measured by γ counter. IC 50 values were determined by nonlinear regression analysis to fit a four-parameter dose−response curve using Prism 6 (version 6.0c). All binding assays were performed in triplicate. […]

[2] = tested on: 22Rv1 cells; assay: GOAT ligand labeling and imaging in 22Rv1 prostate cancer cells; format: cell-based, human; settings: 5 μM ligand 15 with 40 μM ligand 12, 30 min RT, p < 0.05
Protocol: Prostate cancer (PCa) cells LNCaP (ATCC, CRL-1740) and 22Rv1 (ATCC, CRL-2505) were maintained in a 75 mL vented tissue culture flask (Celltreat) at 37 °C with 5% CO2 in complete 1× RPMI (Roswell Park Memorial Institute) media supplemented with 10% FBS and 1% (v/v) penicillin-streptomycin (Mediatech). Cell lines were passaged upon reaching 70% confluency (∼2–3 days). For microscopy studies, PCa cells were plated in 2 mL of complete 1× RPMI in a six-well plate (Corning) containing sterile 12 mm poly-L-lysine coated glass coverslips (Neuvitro, GG-12-PDL) in each well. The cells were allowed to adhere and reach 70% confluence on the coverslips prior to labeling.
Upon reaching confluency, coverslips with attached PCa cells were treated with ligands at the indicated concentration for 30 min at RT (unless otherwise stated). Cells were washed 3× with 1× phosphate-buffered saline (PBS) (Cellgro) and then fixed for immunofluorescence staining as described above. For ligand competition experiments, cells were incubated with 5 μM ligand 15 alone, 5 μM ligand 15 with 40 μM ligand 12, or PBS alone for 30 min at RT. […]
The fluorescence range of intensity was adjusted identically for each image series. […] Total cell fluorescence was determined by calculating the integrated density of mean gray value in a cell area compared to background as shown in eqs 4 and 5. […]

[3] = biological target: human ghrelin O-acyltransferase (hGOAT) of the hGOAT inhibition assays (human) (UniProt Q96T53)
[4] = biological target: T2, human ghrelin O-acyltransferase (hGOAT) of the hGOAT inhibition assays (human, UniProt Q96T53 1-435); assay: cell-based or functional assay
T2 sequence (looked up): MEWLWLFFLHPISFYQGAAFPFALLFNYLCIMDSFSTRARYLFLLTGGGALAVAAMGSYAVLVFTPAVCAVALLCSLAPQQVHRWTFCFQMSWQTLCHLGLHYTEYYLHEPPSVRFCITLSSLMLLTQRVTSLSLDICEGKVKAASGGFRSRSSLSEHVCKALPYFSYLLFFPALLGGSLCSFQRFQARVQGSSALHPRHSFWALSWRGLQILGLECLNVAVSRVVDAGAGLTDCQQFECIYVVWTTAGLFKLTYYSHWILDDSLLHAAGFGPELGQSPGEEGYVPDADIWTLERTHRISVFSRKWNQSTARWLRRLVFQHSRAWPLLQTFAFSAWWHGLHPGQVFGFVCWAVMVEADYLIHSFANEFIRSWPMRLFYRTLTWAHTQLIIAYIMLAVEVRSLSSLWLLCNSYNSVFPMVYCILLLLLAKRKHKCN

Molecule	inhibition of hGOAT activity (IC50 against hGOAT) [4] [µM]	other results
CC(C)C[C@H](NC(=O)[C@H](Cc1cccc2ccccc12)NC(=O)[C@H](CN)NC(=O)[C@H](CO)NC(=O)CN)C(=O)N[C@@H](CO)C(=O)N1CCC[C@H]1C(=O)N[C@H](C(N)=O)[C@@H](C)O [ligand 12, H-GS-Dap-Nal-1-LSPT-NH2] (HELM PEPTIDE1{G.S.[NC[C@H](N[*:1])C(=O)[*:2]].[O=C([C@H](Cc1cccc2ccccc12)N[*:1])[*:2]].L.S.P.T.[am]}$$$$V2.0)	–	IC50 [1]: ≥ 100 µM; effect of unlabeled competitor on ligand 15 internalization (total cell fluorescence) [2]: significant reduction of ligand 15 internalization
ligand 15, H-GS-Dap-Nal-1-LSPTK(SulfoCy5)-NH2 (peptide)	–	inhibition of hGOAT activity by ligand 15 (IC50) [3]: 17 nM
B1	> 100	–
B2	0.006	–
B3	> 100	–
